The source of these data is patent US20240327526A1 (Amgen, published 2024).

The target of assay [1] is T1, ActRIIA-huFc (human).
T1 construct: Used biotinylated in the ELISA screens; also called huActRIIA-huFc; biotin-ActRIIA-huFc
Nature of the assay: BIAcore. On the technique in general: Surface plasmon resonance follows binding to a sensor surface in real time, without labels.

Assay [2] addresses T1, ActRIIA-huFc. Kind of assay: binding affinity, method not stated.
Assay [3] concerns the target activin type IIA receptor (ActRIIA) on C2C12/pMARE-luc cells co-transfected with ALK4 (Homo sapiens (Human), UniProt P27037 20-513). Nature of the assay: cell-based or functional assay.
Assay [4] addresses T2, activin type IIB receptor (ActRIIB) on C2C12/pMARE-luc cells co-transfected with ALK4 (Homo sapiens (Human), UniProt Q13705 19-134).
T2 chain: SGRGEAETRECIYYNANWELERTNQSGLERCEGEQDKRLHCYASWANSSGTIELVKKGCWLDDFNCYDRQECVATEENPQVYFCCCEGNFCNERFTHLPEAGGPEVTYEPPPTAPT
Nature of the assay: cell-based or functional assay.

The target in assay [5] is T1, ActRIIA-huFc. Kind of assay: KinExA.

Changes are numbered by the printed parent chain. Where only a bound is given, the exact number is not on record here.

T1 sequence (chain, as listed by the source limits assumed): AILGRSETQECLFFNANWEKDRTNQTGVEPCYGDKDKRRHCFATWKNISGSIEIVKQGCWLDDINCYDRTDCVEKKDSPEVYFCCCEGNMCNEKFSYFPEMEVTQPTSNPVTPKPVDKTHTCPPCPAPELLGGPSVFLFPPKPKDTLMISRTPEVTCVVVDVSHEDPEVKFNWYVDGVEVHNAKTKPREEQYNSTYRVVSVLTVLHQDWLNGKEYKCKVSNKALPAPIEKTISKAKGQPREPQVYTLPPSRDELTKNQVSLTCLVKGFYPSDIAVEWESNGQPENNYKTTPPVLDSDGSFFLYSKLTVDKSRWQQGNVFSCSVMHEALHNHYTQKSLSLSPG
Chain of activin type IIA receptor (ActRIIA) on C2C12/pMARE-luc cells co-transfected with ALK4 (P27037 20-513): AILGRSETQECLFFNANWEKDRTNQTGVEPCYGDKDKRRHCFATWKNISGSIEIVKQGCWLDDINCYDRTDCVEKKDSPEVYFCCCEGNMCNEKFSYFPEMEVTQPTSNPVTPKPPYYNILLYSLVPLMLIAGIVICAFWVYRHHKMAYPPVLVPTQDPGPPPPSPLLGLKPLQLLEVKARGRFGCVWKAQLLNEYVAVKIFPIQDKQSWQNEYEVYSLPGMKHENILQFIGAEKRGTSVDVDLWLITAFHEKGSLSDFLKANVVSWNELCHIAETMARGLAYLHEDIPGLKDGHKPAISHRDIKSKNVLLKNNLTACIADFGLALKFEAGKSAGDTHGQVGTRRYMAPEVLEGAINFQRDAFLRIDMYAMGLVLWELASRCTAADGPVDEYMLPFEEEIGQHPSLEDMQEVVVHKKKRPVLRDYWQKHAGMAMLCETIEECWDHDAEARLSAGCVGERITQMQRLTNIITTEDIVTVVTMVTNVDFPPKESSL

B1: Anti-ActRIIB human IgG R31-1 (antibody, V domains shown)
VH: EVQLLESGGGLVQPGGSLRLSCAASGFTFRNYAMSWVRQAPGKGLEWVSGISVTGGSTYYTDSVKGRFTVSRDNSRNTLYLQMNSLRAEDTAVYYCAKVYYSSFFDYWGQGTLVTVSS
VL: QTVVTQEPSFSVSPGGTVTLTCGFNSGSVSTSYYPSWYQQTPGQAPRTLIYNTNTRSSGVPDRFSGSILGNKAALTITGAQADDESDYYCVLYMGSGIWVFGGGTKLTVLG
notes: Human IgG2/kappa from Xenomouse immunization with ActRIIB-huFc; also called parental 31-1; parental molecule R31-1
For the molecule B1, the figures for the Kd with ActRIIA-huFc [1] and with ActRIIA-huFc [2] were 4000 pM and roughly 1000 pM, respectively. Besides, in assay [3], the “Cell-Based IC50, ActRIIA Signaling (luciferase reporter, C2C12/pMARE-luc cells with ActRIIA + ALK4, 4 nM myostatin or activin)” value was determined as 2 nM. Also, the “Cell-Based IC50, ActRIIB Signaling (luciferase reporter, C2C12/pMARE-luc cells with ActRIIB + ALK4, 4 nM myostatin or activin)” value in assay [4] was 8 nM.

B2: M37 (antibody, human IgG2, lambda, V domains shown)
VH: B1 VH with S35A, Y59F, S102T
VL: B1 VL with Y93W
As to B2, in the assay with ActRIIA-huFc [5], the equilibrium dissociation constant (Kd) (usually the constant that tells how readily two partners part at equilibrium) was less than 1 pM and the “fold improvement of affinity over the parental molecule R31-1” value (“fold improvement of affinity” below) is no less than 1000 fold.

B3: M25 (antibody, human IgG2, lambda, V domains shown)
VH: B1 VH with Y32S, G50A, S102Y
VL: B1 VL with W99H
For the molecule B3, in the assay with ActRIIA-huFc [5], the Kd is less than 1 pM and the “fold improvement of affinity” value was no less than 1000 fold.

B4: M43 (antibody, human IgG2, lambda, V domains shown)
VH: B1 VH with Y32S, Y59F, S102Y
VL: B1 VL with Y34W, Y93W
notes: fully human
In the case of B4, binding with ActRIIA-huFc [1] was characterised by a dissociation constant (Kd) of 1 pM. The “Cell-Based IC50, ActRIIB Signaling (luciferase reporter, C2C12/pMARE-luc cells with ActRIIB + ALK4, 4 nM myostatin or activin)” value in assay [4] was 2 nM. Also, in the assay with ActRIIA-huFc [5], the Kd was less than 1 pM and the “fold improvement of affinity” value was no less than 1000 fold.
